Test [1] concerns the target T1, cyno FcRn complexed with β2-microglobulin (cynomolgus monkey, UniProt Q8SPV9 24-290; Q8SPW0 21-119).
T1 construct: also called cynomolgous monkey neonatal Fc receptor
As to the kind of experiment: SPR (Biacore T200), antibody captured on Protein L, cyno FcRn 0-240 nM as analyte, steady-state analysis, pH6.0, 25 C. The procedure: Analysis of interaction between each antibody and the FcRn prepared as mentioned above was carried out using BIACORE (registered trademark) T200 (GE Healthcare). Buffer solution containing 150 mM sodium chloride, 0.05 w/v % Tween-20, 50 mM phosphate buffer (pH6.0) was used as running buffer, and the measurement temperature was set to 25 degrees C. Series S sensor Chip CM4 (GE Healthcare) onto which Protein L (BioVision) had been immobilized by the amine coupling method was used. After capturing 400 resonance unit (RU) of antibodies of interest onto the chip via the Protein L, FcRn diluted with the running buffer was allowed to interact, then the KD values were calculated. COS0098pHv1-SG1 was evaluated with 0, 250, 500, 1000, 2000, 4000 nM cyno FcRn, and COS0098pHv1-SG1077R was evaluated with 0, 15, 30, 60, 120, 240 nM cyno FcRn. Then, the chip capturing each antibody was washed by 10 mM Glycine-HCl, pH1.5, regenerated and used repeatedly. The equilibrium dissociation constant (KD (M)) for cyno FcRn was calculated for each antibody based on the steady-state analysis. The Biacore T200 Evaluation Software (GE Healthcare) was used to calculate each parameter.

The next test deals with T2, cyno FcγRIIIa(R) (cynomolgus monkey, UniProt Q8SPW2 17-208).
T2 construct: also called cyFcyRIIIa(R); not shown: C-terminal His-tag
Put plainly: SPR (Biacore T200), antibody captured on Protein L, FcγR at 1000 nM, pH7.4, 25 C. On the procedure: (§1) Analysis of interaction between antibody and the FcγR prepared as mentioned above was carried out using BIACORE (registered trademark) T200 (GE Healthcare). 150 mMN Sodium chloride and 0.05 w/v % Tween-20 containing 50 mM phosphate buffer (pH7.4) was used as running buffer, and the measurement temperature was set to 25 degrees C. Chip produced by immobilizing Protein L (BioVision) by the amine coupling method to a Series S sensor Chip CM4 (GE Healthcare) was used. After capturing 500 or 1000 resonance unit (RU) of antibodies of interest onto the chip, FcγRs diluted with the running buffer were allowed to interact, and their binding amounts to antibodies were measured. Cyno FcγRIa was diluted to 8 nM, and others were diluted to 1000 nM. Then, antibodies captured onto the chip were washed by 10 mM Glycine-HC, pH1.5, and the chip was regenerated and used repeatedly. The binding amounts of FcγRs were divided by the binding amount of each antibody captured to obtain binding activity using biacore evaluation software, and these values were compared. Furthermore, the relative values of binding activity of COS0098pHv1-SG1077R to each FcγR to COS0098pHv1-SG1 (an antibody having the sequence of a naturally-occurring human IgG1 at positions 234 to 239, 265 to 271, 295, 296, 298, 300, and 324 to 337, according to EU numbering) were calculated.
On the technique in general: Surface plasmon resonance follows binding to a sensor surface in real time, without labels.

In another test the target is T3, cyno FcγRIIIa(S) (cynomolgus monkey, UniProt Q8SPW2 21-206 at identity 1.00)).
T3 construct: also called cyFcyRIIIa(S); not shown: C-terminal His-tag
T3 chain: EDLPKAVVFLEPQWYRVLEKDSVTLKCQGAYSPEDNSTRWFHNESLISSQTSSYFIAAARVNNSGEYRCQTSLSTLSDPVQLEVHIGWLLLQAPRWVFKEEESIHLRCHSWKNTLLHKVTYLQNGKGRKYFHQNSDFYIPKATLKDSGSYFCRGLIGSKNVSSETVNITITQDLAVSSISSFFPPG
The test is described as above. On the procedure: as §1

The target of a further test is T4, cyno FcγRIIa1 (cynomolgus monkey).
T4 construct: also called cyFcyRIIa1; not shown: C-terminal His-tag
T4 chain: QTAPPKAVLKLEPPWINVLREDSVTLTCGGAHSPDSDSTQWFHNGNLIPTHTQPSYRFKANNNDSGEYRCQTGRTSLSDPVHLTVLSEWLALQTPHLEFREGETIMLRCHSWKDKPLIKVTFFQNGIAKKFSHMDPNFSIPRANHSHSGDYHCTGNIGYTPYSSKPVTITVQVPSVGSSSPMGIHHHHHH
Described as above. The procedure:
as §1

For a further test, the target named is T5, cyno FcγRIIa3 (cynomolgus monkey).
T5 construct: not shown: C-terminal His-tag
T5 chain: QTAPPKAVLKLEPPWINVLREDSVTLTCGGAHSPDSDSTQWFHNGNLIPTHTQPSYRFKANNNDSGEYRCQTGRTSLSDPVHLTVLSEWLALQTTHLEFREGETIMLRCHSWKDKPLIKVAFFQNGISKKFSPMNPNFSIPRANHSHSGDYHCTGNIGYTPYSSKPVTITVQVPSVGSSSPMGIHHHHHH
Described as above. The procedure: as §1

For the next test, the target named is T6, cyno FcγRIIb (cynomolgus monkey).
T6 construct: also called cyFcyRIIb; not shown: C-terminal His-tag
T6 chain: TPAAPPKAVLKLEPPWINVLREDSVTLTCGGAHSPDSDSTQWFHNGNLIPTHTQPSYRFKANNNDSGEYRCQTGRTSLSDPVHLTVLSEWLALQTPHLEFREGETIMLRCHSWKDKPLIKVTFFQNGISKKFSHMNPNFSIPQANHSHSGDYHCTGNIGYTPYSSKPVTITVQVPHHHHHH
The test is described as above. On the procedure:
as §1

The target of another test is T7, cyno FcγRIIa2 (cynomolgus monkey).
T7 construct: also called cyFcyRIIa2; not shown: C-terminal His-tag
T7 chain: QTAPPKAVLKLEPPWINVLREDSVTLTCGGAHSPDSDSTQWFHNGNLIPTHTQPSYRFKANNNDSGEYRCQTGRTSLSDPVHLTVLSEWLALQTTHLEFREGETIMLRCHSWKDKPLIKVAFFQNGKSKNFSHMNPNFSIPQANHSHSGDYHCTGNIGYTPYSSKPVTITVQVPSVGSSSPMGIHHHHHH
The description is as above. The procedure:
as §1

The target of the next test is T8, cyno FcγRIa (cynomolgus monkey, UniProt P12314 16-288 (human entry)).
T8 construct: also called cyFcyRIa; cynomolgus monkey Fc gamma receptor Ia; not shown: C-terminal His-tag
T8 chain: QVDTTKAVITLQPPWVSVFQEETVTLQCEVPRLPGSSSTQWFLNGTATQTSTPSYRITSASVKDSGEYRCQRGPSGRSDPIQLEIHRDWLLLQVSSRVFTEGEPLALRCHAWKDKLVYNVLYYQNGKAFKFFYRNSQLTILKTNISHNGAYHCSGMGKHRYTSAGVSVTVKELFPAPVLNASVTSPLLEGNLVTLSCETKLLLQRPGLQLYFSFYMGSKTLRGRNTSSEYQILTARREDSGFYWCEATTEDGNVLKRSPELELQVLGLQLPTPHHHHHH
Put plainly: SPR (Biacore T200), antibody captured on Protein L, FcγRIa at 8 nM, pH7.4, 25 C. On the procedure:
as §1

T2 sequence (Q8SPW2 other isoform, or with tags, fused parts or gaps): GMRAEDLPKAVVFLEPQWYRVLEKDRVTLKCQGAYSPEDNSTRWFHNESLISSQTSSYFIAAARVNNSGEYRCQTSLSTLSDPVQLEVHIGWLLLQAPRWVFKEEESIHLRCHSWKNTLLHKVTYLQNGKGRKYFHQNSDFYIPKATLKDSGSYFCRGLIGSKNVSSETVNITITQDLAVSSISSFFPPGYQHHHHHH
T1 sequence (Q8SPV9 24-290 limits assumed, chain 1 of 2): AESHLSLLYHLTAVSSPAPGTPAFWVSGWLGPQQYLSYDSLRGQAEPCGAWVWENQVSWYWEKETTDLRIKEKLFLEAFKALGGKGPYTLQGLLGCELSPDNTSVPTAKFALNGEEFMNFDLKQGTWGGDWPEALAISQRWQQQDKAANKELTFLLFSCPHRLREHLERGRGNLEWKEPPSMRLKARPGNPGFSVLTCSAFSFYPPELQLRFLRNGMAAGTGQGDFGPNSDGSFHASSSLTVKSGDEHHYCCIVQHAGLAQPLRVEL
T1 sequence (Q8SPW0 21-119 limits assumed, chain 2 of 2): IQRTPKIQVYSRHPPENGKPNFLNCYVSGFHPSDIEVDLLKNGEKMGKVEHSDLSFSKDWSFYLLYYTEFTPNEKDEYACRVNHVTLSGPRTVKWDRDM

B1: COS0098pHv1-SG1077R (antibody)
heavy: QVQLVQSGAEVKKPGSSVKVSCKASGHTFSKYTVSWIRQPPGKGLEWIGIINTGGSAYPATWAKGRVTITADESTSTAYMELSSLRSEDTAVYYCARGAGDTDYTNLWGQGTLVTVSSASTKGPSVFPLAPSSKSTSGGTAALGCLVKDYFPEPVTVSWNSGALTSGVHTFPAVLQSSGLYSLSSVVTVPSSSLGTQTYICNVNHKPSNTKVDKRVEPKSCDKTHTCPPCPAPELWNGPSVFLFPPKPKDTLMISRTPEVTCVVVDVSDEDPEVKFNWYVDGVEVHNAKTKPREELYNSTYRVVSVLTVLHRDWLNGKEYKCKVSNTALPKPIEKTISKAKGQRREPQVYTLPPSREEMTKNQVSLTCLVKGFYPSDIAVEWESNGQPENNYKTTPPVLDSDGSFFLYSKLTVDKSRWQQGNVFSCSVLHEALHAHTTRKELSLSP
light: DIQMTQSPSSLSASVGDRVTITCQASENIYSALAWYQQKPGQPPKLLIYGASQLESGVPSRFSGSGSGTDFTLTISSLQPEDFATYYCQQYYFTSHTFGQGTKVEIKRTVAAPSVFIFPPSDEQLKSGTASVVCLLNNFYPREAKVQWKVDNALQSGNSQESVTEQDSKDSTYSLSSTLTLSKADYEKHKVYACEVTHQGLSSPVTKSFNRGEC
notes: also called COS009pHv1-SG1077R; COS009BpHv1-SG1077R
In test [1], B1 registered a Kd of 70 nM. Besides, the “Binding activity value (Binding amount per 1 RU antibody)” value with cyno FcγRIIIa(R) came out at 0.006 RU per 1 RU antibody; with cyno FcγRIIIa(S), 0.0084 RU per 1 RU antibody; in the test with cyno FcγRIIa1 it was 0.0436 RU per 1 RU antibody; in the test with cyno FcγRIIa3, 0.025 RU per 1 RU antibody; in the test with cyno FcγRIIb, 0.082 RU per 1 RU antibody; in the test with cyno FcγRIIa2, 0.0425 RU per 1 RU antibody. Moreover, the “Relative value of binding activity” value in the test with cyno FcγRIIIa(R) was 0.05 fold, relative to COS0098pHv1-SG1; with cyno FcγRIIIa(S), 0.07 fold, relative to COS0098pHv1-SG1; with cyno FcγRIIa1, 2.23 fold, relative to COS0098pHv1-SG1; with cyno FcγRIIa3, 3.96 fold, relative to COS0098pHv1-SG1; in the test with cyno FcγRIIb, 2.86 fold, relative to COS0098pHv1-SG1; with cyno FcγRIIa2, 2.51 fold, relative to COS0098pHv1-SG1. In addition, in the test with cyno FcγRIa, the “Relative value of binding activity” value was 0.06 fold, relative to COS0098pHv1-SG1.

As usually defined, the Kd is the constant that tells how readily two partners part at equilibrium. A lower Kd goes with higher affinity.
